This is an account of results in publication PMC13410764.

For the experiment, the target named is Tr1 protein of Anaplasma phagocytophilum (recombinant, tagless) (Anaplasma phagocytophilum). Description: SEC; gel filtration on a HiPrep Sephadex 75 16/600 column with Buffer B; apparent molecular weights from a standard curve of elution volumes.

What is called stoichiometry N is the number of molecules, sites or subunits per partner or assembly. As for “Tr1 protein of Anaplasma phagocytophilum (recombinant, tagless) (natural protein)”, the stoichiometry N came to 4.
